The nanobody polyreactivity screen of Harvey et al. (2022)

Experiment: yeast display, Sf9 membrane polyspecificity reagent, FACS + sequencing; frameworks hold sequencing errors
In short: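 Using colony PCR, genes from sorted yeast display clones were amplified, then sequenced on MiSeq at 2 × 250 and filtered by CDR length. The clones had been stained with 10% biotinylated, detergent-solubilized Sf9 membrane reagent for 1 hour at 4 °C and sorted by FACS into low and high (top ~1%) gates on anti-HA and streptavidin fluorescence. Polyreactivity labels come from the gate of origin.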

| Sequence | polyreactivity (PSR sort gate) |
| --- | --- |
| QVQLVESGGGLVQAGGSLRLSCAASGSIFGKNAMGWYRQAPGKEREFVAAITNTGGDTYYADSVKGRFTISRDNAKNNVYLQMNSLKPEDTAVYYCNARKRKTSLYKFNYWGQGTQVTVSS | high polyreactivity |
| QVQLVESGGGLVQAGGRLRFSCAASGFIFRYYAMGCYRQAPGKERELVAAIDYSGGSTNYADSVKGRFTISRDNAKNTVYLQMNSLKPEETAVYYCNAEYTWHRGYDYWGQGTLVTVSS | low polyreactivity |
| QVQLVESGGGLVQAGGSLLLSCAASGRIFRSYTMGWYRQAPGKERELVAAITSYGGRTYYADSVKGRFTISRDNAKNTVYLQMNRLKPEDTAVYYCAAHLSRDKFDYWGQGTQVTVSS | low polyreactivity |
| QVQLVESGGGLVQAGGSLSLTCAASGRILYRYAMGWYRPAPGKERDLVAAISWSGGSTYYADSVKGRFTISRDNAKNTVYLQLYSLKPEDTAVYYCNAVRASRSGGFDYWGQGTQVTVSS | high polyreactivity |
| QVQLVESGGGLVQAGGSLRLSCAASVLTFETYAMGWYRQAPGKERELVAAISFSGDSTYYADSVKGRFTISRDNAKNTVYLQMNSLKPEDTAVYYCAAEQYYAWYIVGPDYYYWGQGTQVTVSS | high polyreactivity |
| QVQLVESGGGLVQAGGSLRLSCAASGSIRSYAMGWYRQAPGKERELVAAITRSGGSTYYADSVKGLFTISRDNAKNTVYLQMNSLKPEDTAVYYCAARYTYSYPLFGSWGQGTQVTVSS | high polyreactivity |
| QVQLVESGGGLVQAGGSLRLTCAASGSIFHGNDMGWYRQAPGKETELVATISSGGSTYYADSVKGRFTSSRDNAKTTVYLQMNSLKPEDTAVYYCAAERFWPYKSYYWGQGTQVTVSS | low polyreactivity |
| QVQLVESGGGLVQAGGSLRLSCAASGSIFYSNAMGWYRQAPGKEREFVAAISAGGGSTYYADSVKGRFTISRDHSKNTVYFQMNSLKPEDTAVYYCAKGPLPRAGVKFDYWGQGTQVTVSS | low polyreactivity |
| QVQLEESGGGLDQAGGILRLSFAASGSTIGGYAMGWYSQATGNERELVAAITRSGGRTYYADSVKGRFTISRDNGKNTVYLQMNSLKPEDTAVYYCATLVTNGRYDSWGQGTQVTVSS | high polyreactivity |
| QVQLVDSGVGLVQAGGSLRLSCASSGSTFTINAMACYRHAPGKERELVAAISSGDSYYADSVKGRFTISRDNAKNTVYLQMNSLKPEDTTAVYYCAADSPGDSSKYDYWGQGTQVTVSS | low polyreactivity |
| QVQLVESGGALVQAGGSLRLSCAASGLIFYKYAMGWYRQAPGKERELVASISTGGGSTYYADSVKGRFTISRDNAKNTVYLQMNSLKPEDTAVYYCAARWWRRFRGSHSLYDYWGQGTLVTVSS | high polyreactivity |
| QVHLVESGGGLVQAGGSLRLSCAASGRTFIKYAMGWYIQAPGKERELVAAISVSGGRTYYADSVKGRFTISRDKAKNTVYLQMNSLKPEDTAVYYCNKVRVGSLRGYWGQGTQVTVSS | high polyreactivity |
| QVQLVESGGGLVQAGGSLRLSCAASGRTFGVYAMGWYRQAPGKERELVATIRTTGSTNYADSVKGRFTISRDNAKYTVYLQMNSVKTEDTAVYYCAARLRQSKYYPYTTFTYDYWGQGTQVTVSS | high polyreactivity |
| QVQLVESGGGLVQAGGSLRVSCAASGGIFWYYTMGWYRQAPGKERELVATISSGGRTYYADSVKGRFTISRDNAKNTVYLQMNSLKPEDTAVYYCAAVGWYHDYYWGQGTQVTVSS | high polyreactivity |
| QVQLVESGGGLVQAGGSLRLSCAASGIIFGYYAMGRYRQAPGKERELVAAITWSGGSTYYADSVKGRFTISRDNAKNTVYLQMNSLKPEDTAVYYCAAGDPTLLNESFDYWGQGTQVTVSS | low polyreactivity |
| QVQLVESGGGLVQAGGSLRLSCAASGIIFIYYAMGWYRQAPGKERELVAAISQSGVNTYYADSVKGRFTISRDNAKNTVYLQMNSLKPEDTAVYYCAADRYGHFGYWGQGTQVTVSS | high polyreactivity |
| QVQLVESGGGLVQAGGSLRLSCAASGGTFFYNAMGWYRQAPGKERELVAAINGGTSTNYADSVKGRFTISRDNAKNTVYLQMNSLKPEDTAVYYCAAVYRRLGRYDWYDYWGQGTQVTVSS | low polyreactivity |
| QVQLVESGGGLVQAGGSLRLSCAASGLTFGPYAMGWYRQAPGKERELVAAITSGGYTNYADSVKGRFTISRDNAMNTVYLQMNSLKPEDTAVYFCATSYYLAYRSITPYDYWGQGTQVTVSS | low polyreactivity |
| QVQLVESGGGLVQAGGSLRLSCAASGSNSPTMLMGGYRKAPGKERELVAAISGGGRTNYADSVKGRFTISRDNAKNTVYLQMNSLKPEETAVYYCAAGGYYQRTRGDWGQGTQVTVSS | high polyreactivity |
| QVQLVESGGGLVQAGGSLRLSCAASGYIFGAYAMGWYRQAPGKERELVAGITASGDSTYYADSVKGRFTISRDNAKNTVYLQMNSLKPEDTAVYYCNAQPDIGLYDRQWKEPYEYWGQGTQVTVSS | low polyreactivity |
| QVHLVESGGGLVQAGGSLRLSCAASGRIFGPYTMGWYIQAPGKEREFVAAITRRGGSTYYADSVKGRFTISRDNAKNTVYLQMNSLKPEDTAVYSCAAGGQKRSLGYSWGQGTQVTVSS | low polyreactivity |
| QVQLVESGGGLVQAGGSLRLSCAASGFTFVDYAMGWYRQAPGKERELVATINWDSGSTYADSVKGRFTISRDNAKNTVYLQMNSLKPEDSADYYCAADGDEIEVSFYSWGQGTQVTVSS | low polyreactivity |

| Sequence | polyreactivity (PSR sort gate) |
| --- | --- |
| EEELVESGGGLVQAGGSLRLSCAASGRTLAGYPMGWYRQAPGKERELVAAISSSGGSTYYADSVKGRFTISRDNAKNTVYLQMNSLKPEDTAVYYCNRYSSYIPYPYNYWGQGTQVTVSS | high polyreactivity |
| QVQLVESGGGLVQAGGSLRLSCAPTGFIFFTYAMGWYRQAPGKERELVAAISQSGASTYYADSVKGRFTISRDNAKKTVYLQMNSLKPEDSAVDYCAATYSFRYWIQRYNYWGQGTQVTVSS | low polyreactivity |
| QVQLVESGGGLVQAGGSLRLSCAASGFTFGSNAMGWYRQAPGKEREFVAAITYSGGGTYADSVKGRFTISRDNAKNTVDLQMNSLKPEDTAVYYCATDAYRWHYWNFGFGYWGQGTQVTVSS | high polyreactivity |
| QVQLVESGGSIVQAGGSLRLSCAASGSTFDVYDMGWYRHAPGKERELVAAITTSGGGTYYADSVKGRFTISRDNAKNTGYLQMNSLKPEDTAVYYCAADTWRDGDDYWGQGTQVTVSS | low polyreactivity |
| QVQLVESGGGLVQAGGSLRLSCAASGFIFYGYTMGWYRQAPGKERELVAAITFSGGRTYYADSVKGRFTISRDNAKNTVYLQMNSLKPEDTAVYYCNARVVNYFRPRTGAREYDYWGQGTQVTVSS | high polyreactivity |
| QVQLVESGGGLVQAGGSLRLSCAASGLTFGTNAMGWYIQAPGKERELVAAISTSSGSTYYADSVKGRFTISRDNAKNTVYLQMNSLKPEDTAVYYCAAVTVTKLSYYRYYYWGQGTQVTVSS | low polyreactivity |
| QVQLVESGGGLVQAGGSLRLSCAASGSIFVVYSMGWYRQAPGKERELVAGISYGDNTNYADSVKGRFTISRDNAKNTVYLQMNSLKPVDTAVYYCNADGTSRNLEGFDYWGQGTQVTVSS | low polyreactivity |
| QVQLVESGGGLVQAGGSLRLSSAASGFIFFCYTMGWYRQARGKERELVAAISSTGARTYYADSVKGSFTISRDNAKNTVYLQMNSLKPEDTAFYYCAARLSYQGRGYRFWGQGTQVTVSS | high polyreactivity |
| QVQLVESGGGLVQAGGSLRLSCAASGRTFTYYSMGWYRQAPGKERELVAAISSGGRTNYADSVKGRFTISRDNAKNTVYLQMNSLKPEDTAVYYCAADGTTFRNRYYFHRMDFWGQGTQVTVSS | high polyreactivity |
| QVQLVESGGGLVQAGGSLRLSCAASGSTFGIYAMGWYRQAPGKERELVAAIRKNGGSTYYADSVKGRFTISRDNAKNTVYLQMNSLKPEDTAVYYCNADYWIYPSYDYWGQGTQVTVSS | low polyreactivity |
| QVQLVESGGGLVQAGGSLRLSCAASGLTFFGYTMGWYRQAPGKEREFVADITWSGGSTYYADSVKGRFTISRDNAKNTVYLQMNSLKPEVTAVYYCAVAPPNWDPFVDDTYLMDYWGQGTQVTLSS | low polyreactivity |
| QVQLVESGGGLVQAGGSLRLSCAASGSTFSYYAMGWYRQAPGKERELVAAISGRGGSTYYADSVKGRFTISRDNAKNTVYLQMNSLKPEDTAVYYCAKGRLYTAYGLYSWGQGTQVTVSS | high polyreactivity |
| QVQLVESGGGLVQAGGSLRLSCAASGFTFYYYAMGWYRQAPGKERELVATIRWSGGSTYYADSVKGRFTISRDNAKNTVYLQMNSLKPEDTAVYYCNATPPQYVKYPSYKYDYWGQGTQVTVSS | low polyreactivity |
| QVQLVESGGGLVQPGGSLRLSCAASGRTIGVYAMGWYRQAPGKERELVAAITTSGDSTYYADSVKGRFTISRDNAKNTVYLQMNSLKPEDTAVYYCAADYYYVYSSFGHYYWGQGTQVTVSS | low polyreactivity |
| QVQLLESGGGLVQAGGSLRLSCAASGSIFANNAMGWYRQSPGKEREMVAAIDWSAASTYYADSVKGRFTISRDNAKNTVYLQMNSLKPEDTAVYYWNRRGSGGESYRTTTGALGYWGQGTQVTVSS | low polyreactivity |
| QVQLVESGGGLVQAGGSLRLSCAASGFTNSMGWSTQAHGKERELVAAISYSGDSTNYADSVKGRFTISRDNAKNTVYLQMNSLKPEDTAVYYCNASSPYDYDWGQGTQVTVSS | low polyreactivity |
| QVQLVESGGGLVQAGGSLRLSCAASGFIFRYYAMGWYRQAPGKERELVATISASGGRTYYADSVKGRFTISRDNAKNTVYLQMNSLKPEDTAVYYCAVRPYWLGTYAPVAFDYWGQGTQVTVSS | high polyreactivity |
| QVQLVESGGGLVQAGGSLRLSCAASGRIFLGYAMGWYRQAPGKERELVAAITFSGGSTYYADSVKGRFTISRDNAKNTVYLQMNSLKPEDTAVYYCAAPRLRRTYPRNRYDYWGQGTQVTVSS | low polyreactivity |
| QVQLVESGGGLVQAGGSLRLSCAASGSTFVINAMGWYRQAPGKERELVAAISFSGDTTYYADSVKGRFTISRDNAKNTVYLQMNSLKPEDTAVYYCAASVTVGISKYGYWGQGTQVTVSS | high polyreactivity |
| QVQLVESGGGLVQARGSLRLNSAASGRTFYQYVMGWYRQAPWKERELVAAIRSGGNTYYADSEKGRITISRDNAKYTVYLQMNSLKPEDTAVYYCAVQRGYYRFRLGLYCYDYWGQGTQVTVSS | high polyreactivity |
| PVQIVESGGGLVQAGGRLRLSCAASGSILVPYAMGWSRQAPGKERELVADISIRTGSTYYADSVKGRFTISRDNAKNTVYLQMYSLKPEETAVYYCNAAHRKPYTGLYYWGQGTQVTVSS | high polyreactivity |
